In patent publication US20160159862A1 (PROTAGONIST THERAPEUTICS, published 2016):
Bridge positions count the residues as written; N and C are the ends. Square brackets hold non-standard residues; d marks the D form. Ends that are not written are not given here. * marks the point of attachment. Phe(4-tBu) = CC(C)(C)c1ccc(C[C@H](N)C(=O)O)cc1; Phe(4-CN) = N#Cc1ccc(C[C@H](N)C(=O)O)cc1; 2Nal = N[C@@H](Cc1ccc2ccccc2c1)C(=O)O; NMeR = CN[C@@H](CCCNC(=N)N)C(=O)O; β3hE = N[C@@H](CCC(=O)O)CC(=O)O; Pen = CC(C)(S)[C@H](N)C(=O)O; hLeu = CC(C)CC[C@H](N)C(=O)O; Hexanoyl = CCCCCC(=O)*

B1: SEQ ID NO 173 (peptide)
peptide: Ac-[Pen][NMeR]SDTL[Pen][Phe(4-tBu)][b‑H‑E][dK]
modifications: disulfide 1-7 (inferred); not fully specified (residue 10); also: lauroyl (lauroyl chloride) attached after k
B2: SEQ ID NO 158 (peptide)
peptide: Ac-XRSDXLXXE-NH2
modifications: disulfide 1-7 (inferred); not fully specified (residues 1, 2, 5, 7, 8, 9); printed as Ac-Pen-(N-Me-R)-S-D-Cha-L-Pen-(2-Nal)-e-NH2, disulfide
B3: SEQ ID NO 28 (peptide)
peptide: Ac-[Pen][NMeR]SDTL[Pen][dW]E[dK]-NH2
modifications: disulfide 1-7 (inferred); also: homodimer via DIG
B4: SEQ ID NO 159 (peptide)
peptide: Ac-[Pen][NMeR]SDLL[Pen][2Nal][dE]-NH2
modifications: disulfide 1-7 (inferred)
B5: SEQ ID NO 161 (peptide)
peptide: Ac-[Pen][NMeR]SD[hLeu]L[Pen][2Nal][dE]-NH2
modifications: disulfide 1-7 (inferred)
B6: SEQ ID NO 140 (peptide)
peptide: Ac-[Pen][NMeR]SDTL[Pen][2Nal][dT][dK]-NH2
modifications: disulfide 1-7 (inferred); also: homodimer via DIG
B7: SEQ ID NO 25 (peptide)
peptide: Ac-[Pen][NMeR]SDTL[Pen]HE[dK]-NH2
modifications: disulfide 1-7 (inferred); also: homodimer via DIG
B8: SEQ ID NO 175 (peptide)
peptide: Ac-[Pen][NMeR]SDTL[Pen][Phe(4-tBu)][b‑H‑E][dK]
modifications: disulfide 1-7 (inferred); not fully specified (residue 10); also: myristoyl (myristoyl chloride) attached after k
B9: SEQ ID NO 168 (peptide)
peptide: Ac-[Pen][NMeR]SDTL[Pen][Phe(4-tBu)][b‑H‑E][dK]-OH
modifications: disulfide 1-7 (inferred); also: homodimer via DIG
B10: SEQ ID NO 165 (peptide)
peptide: Ac-[Pen][NMeR]SDTL[Pen][Phe(4-tBu)][b‑H‑E]-NH2
modifications: disulfide 1-7 (inferred)
B11: SEQ ID NO 167 (peptide)
peptide: Ac-[Pen][NMeR]SDTL[Pen][Phe(4-tBu)][b‑H‑E][dK]-NH2
modifications: disulfide 1-7 (inferred); also: homodimer via IDA-PEG4-Biotin
B12: SEQ ID NO 174 (peptide)
peptide: Ac-[Pen][NMeR]SDTL[Pen][Phe(4-tBu)][b‑H‑E][dK]
modifications: disulfide 1-7 (inferred); not fully specified (residue 10); also: oleoyl (oleoyl chloride) attached after k
B13: SEQ ID NO 170 (peptide)
peptide: Ac-[Pen][NMeR]SDTL[Pen][Phe(4-tBu)][b‑H‑E][dK]
modifications: disulfide 1-7 (inferred); not fully specified (residue 10); also: hexanoic acid attached after k
B14: SEQ ID NO 176 (peptide)
peptide: Hexanoyl-[Pen][NMeR]SDTL[Pen][Phe(4-tBu)][b‑H‑E][dK]-NH2
modifications: disulfide 1-7 (inferred)
B15: SEQ ID NO 162 (peptide)
peptide: Ac-[Pen][NMeR]SDTF[Pen][2Nal][dE]-NH2
modifications: disulfide 1-7 (inferred)
B16: SEQ ID NO 156 (peptide)
peptide: Ac-[Pen][NMeR]SDVL[Pen][2Nal][dE]-NH2
modifications: disulfide 1-7 (inferred)
B17: SEQ ID NO 172 (peptide)
peptide: Ac-[Pen][NMeR]SDTL[Pen][Phe(4-tBu)][b‑H‑E][dK]
modifications: disulfide 1-7 (inferred); not fully specified (residue 10); also: palmitoyl (palmitoyl chloride) attached after k
B18: SEQ ID NO 160 (peptide)
peptide: Ac-[Pen][NMeR]SDIL[Pen][2Nal][dE]-NH2
modifications: disulfide 1-7 (inferred)
B19: SEQ ID NO 139 (peptide)
peptide: Ac-[Pen][NMeR]SDTL[Pen][Phe(4-CN)][β3hE][dK]-NH2
modifications: disulfide 1-7 (inferred); also: homodimer via DIG
B20: SEQ ID NO 166 (peptide)
peptide: Ac-[Pen][NMeR]SDTL[Pen][Phe(4-tBu)][b‑H‑E][dK]-NH2
modifications: disulfide 1-7 (inferred); also: homodimer via IDA
B21: SEQ ID NO 27 (peptide)
peptide: Ac-[Pen][NMeR]SDTL[Pen][2Nal][dY][dK]-NH2
modifications: disulfide 1-7 (inferred); also: homodimer via DIG
B22: SEQ ID NO 164 (peptide)
peptide: Ac-[Pen][NMeR]SDTY[Pen][2Nal][dE]-NH2
modifications: disulfide 1-7 (inferred)
B23: SEQ ID NO 26 (peptide)
peptide: Ac-[Pen][NMeR]SDTL[Pen]HY[dK]-NH2
modifications: disulfide 1-7 (inferred); also: homodimer via DIG
B24: SEQ ID NO 169 (peptide)
peptide: Ac-[Pen][NMeR]SDTL[Pen][Phe(4-tBu)][b‑H‑E][dK]
modifications: disulfide 1-7 (inferred); not fully specified (residue 10); also: 4,4,4-trifluorobutyric acid attached after k
B25: SEQ ID NO 157 (peptide)
peptide: Ac-[Pen][NMeR]SDFL[Pen][2Nal][dE]-NH2
modifications: disulfide 1-7 (inferred)
B26: SEQ ID NO 163 (peptide)
peptide: Ac-[Pen][NMeR]SDTQ[Pen][2Nal][dE]-NH2
modifications: disulfide 1-7 (inferred)
B27: SEQ ID NO 171 (peptide)
peptide: Ac-[Pen][NMeR]SDTL[Pen][Phe(4-tBu)][b‑H‑E][dK]
modifications: disulfide 1-7 (inferred); not fully specified (residue 10); also: isovaleric acid attached after k

biological target: α4β7 integrin on human cells (human, UniProt P13612 34-1032; P26010 20-798); experiment: cell-based or functional assay

α4β7 cell (Hu) IC50 [nM] | PBMC IC50 [nM] | Binder
> 100 |  | B1
> 1000 |  | B2
> 50 |  | B3
> 1000 |  | B4
> 1000 |  | B5
> 10 |  | B6
> 10 |  | B7
> 500 |  | B8
≤ 10 | ≤ 10 | B9
> 10 | > 100 | B10
≤ 10 | ≤ 10 | B11
> 1000 |  | B12
> 10 |  | B13
> 50 |  | B14
> 1000 |  | B15
> 100 |  | B16
965 |  | B17
> 1000 |  | B18
≤ 10 |  | B19
≤ 10 | ≤ 10 | B20
> 25 |  | B21
> 1000 |  | B22
> 100 |  | B23
> 10 |  | B24
> 1000 |  | B25
> 1000 |  | B26
> 10 |  | B27
